The values below come from patent US20140094415A1.

Test [1] concerns the target T1, HIS-PDZ1-2 protein (PSD-95 PDZ1-2 tandem) (human), P78352. As to the kind of experiment: fluorescence polarization, saturation binding: increasing PDZ1-2 on 0.5 nM probe. On the technique in general: Fluorescence polarisation rises when a labelled molecule tumbles more slowly, as on binding a larger partner.
Test [2] concerns the target T1, HIS-PDZ1-2 protein (PSD-95 PDZ1-2 …). The test is described as follows: fluorescence polarization, heterologous competition against AB143 probe.
Test [3] has the same target. Described as above. This is another data set of the same source.

Where two headings read alike, the source gives them in different places. Where no end group is shown, it is not given here.

B1: 5-FAM-labeled NPEG4(IETAV)2 probe, AB143 (peptide)
peptide: IETAV
modifications: also: dimer: two IETAV chains on NPEG4 scaffold, 5-FAM label, position not given here
Turning to B1, the Kd (usually the constant that tells how readily two partners part at equilibrium) in test [1] amounted to 7.8 nM.

Regarding IETAV (modifications not checked) [PEG4(IETAV)2 (AB125)], the Ki (usually a dissociation constant, usually derived from enzyme kinetics or from competition with a known ligand) in test [2] is 9.5 nM.

Consider IETAV (modifications not checked) [NPEG4(IETAV)2 (AB141)], for which the Ki came to 9.5 nM in test [2] and 9.3 nM in test [3].
